± gives the uncertainty stated by the source.
B1: Histone H1t, residues 44 to 112; numbered along this chain, P22492 (parent)
chain: VSKLITEALSVSQERVGMSLVALKKALAAAGYDVEKNNSRIKLSLKSLVNKGILVQTRGTGASGSFKLS

Variants of: B1
Experiment: abundance fitness (aPCA) (normalised: wild type 0, dead -1); higher = more abundant; growth selection in yeast, the domain comes from the species named
Conditions: Homo sapiens

Abundance fitness, by site and new letter:
F66: S -0.108 ± 0.033, V -0.078 ± 0.041, E -0.03 ± 0.063, G -0.127 ± 0.064, Y -0.046 ± 0.063, R -0.084 ± 0.04, A 0.008 ± 0.041, T -0.129 ± 0.035, Q -0.072 ± 0.043, H -0.289 ± 0.069, I -0.246 ± 0.065, M -0.173 ± 0.039, L -0.097 ± 0.028
T60: K 0.013 ± 0.043, G -0.033 ± 0.044, P 0.025 ± 0.029, A 0.074 ± 0.042, F -0.236 ± 0.056, R -0.126 ± 0.045, M 0.062 ± 0.04, C -0.042 ± 0.082, E -0.012 ± 0.074, I -0.115 ± 0.059, V -0.038 ± 0.055, N -0.036 ± 0.051, L -0.102 ± 0.031, Q -0.02 ± 0.037, W -0.123 ± 0.085, H -0.076 ± 0.05, Y -0.218 ± 0.047, D 0.133 ± 0.078
G61: A -0.103 ± 0.037, C -0.018 ± 0.054, N 0.055 ± 0.092, E -0.032 ± 0.064, V -0.185 ± 0.042, H -0.006 ± 0.063, F -0.16 ± 0.085, R -0.188 ± 0.031, Q -0.081 ± 0.043, M -0.213 ± 0.048, I -0.171 ± 0.077, D 0.082 ± 0.12, P -0.144 ± 0.036, W -0.176 ± 0.042, T -0.044 ± 0.039, K 0.023 ± 0.052, S -0.07 ± 0.037, L -0.182 ± 0.035, Y -0.218 ± 0.078
S69: Q -0.102 ± 0.091, Y 0.171 ± 0.08, D -0.192 ± 0.13, G -0.218 ± 0.087, M -0.186 ± 0.058, R -0.151 ± 0.041, N -0.055 ± 0.048, E 0.119 ± 0.097, I -0.156 ± 0.096, C -0.246 ± 0.054, L -0.128 ± 0.035, H -0.465 ± 0.21, W 0.173 ± 0.05, A 0.044 ± 0.049, V -0.093 ± 0.056, P -0.115 ± 0.039, F -0.058 ± 0.075, T -0.029 ± 0.044, K -0.012 ± 0.095
L68: D -0.147 ± 0.067, Q -0.327 ± 0.069, Y -0.185 ± 0.042, H -0.369 ± 0.071, G -0.049 ± 0.037, I -0.223 ± 0.045, A -0.176 ± 0.044, F -0.1 ± 0.03, C -0.202 ± 0.057, T -0.067 ± 0.061, R -0.138 ± 0.039, K -0.064 ± 0.058, W -0.121 ± 0.041, N -0.149 ± 0.069

Source: the Human Domainome abundance scans (Beltran et al. 2025)
